Source: the supplement of paper PMC9112550, “Optimization of the antimicrobial peptide Bac7 by deep mutational scanning” (BMC Biology, 2022)

These sequences were tested on Escherichia coli TOP10 (assay: shrunken log2 fold change of peptide-encoding DNA abundance (4.5 h post-induction vs induction); higher = less antimicrobial activity (less host growth inhibition)). Conditions: time post-induction: 4.5 h; library: site-saturation at positions 5, 18, 19, 20.
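Further: peptides expressed intracellularly from a pBAD plasmid library in pooled LB shake-flask culture, induced with 0.3% L-arabinose, DNA abundance read by NGS, three biological replicates, DESeq2 with apeglm shrinkage.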

Question: For RRIRDRPPRLPRPRPRPGLYPRP, which “shrunken log2 fold change” value is on record?
Answer: 0.199

Question: With RRIRDRPPRLPRPRPRPGMAPRP as the sequence, how does the “shrunken log2 fold change” value read?
Answer: 0.22

Question: RRIRDRPPRLPRPRPRPGMIPRP was tested. Which “shrunken log2 fold change” value did it give?
Answer: 0.133

Question: How did the “shrunken log2 fold change” value turn out when RRIRDRPPRLPRPRPRPGPEPRP was run?
Answer: 0.544

Question: For RRIRDRPPRLPRPRPRPGPFPRP, which “shrunken log2 fold change” value is on record?
Answer: 0.174

Question: Which “shrunken log2 fold change” value does the source give for RRIRDRPPRLPRPRPRPGRGPRP here?
Answer: 0.725

Question: For RRIRDRPPRLPRPRPRPGRIPRP, which “shrunken log2 fold change” value is on record?
Answer: -0.136

Question: RRIRDRPPRLPRPRPRPGSIPRP was tested. Which “shrunken log2 fold change” value did it give?
Answer: 0.0264

Question: For RRIRDRPPRLPRPRPRPGSKPRP, which “shrunken log2 fold change” value is on record?
Answer: -0.126

Question: RRIRDRPPRLPRPRPRPGSLPRP was tested. Which “shrunken log2 fold change” value did it give?
Answer: -0.0141

Question: Which “shrunken log2 fold change” value does the source give for RRIRDRPPRLPRPRPRPGSTPRP here?
Answer: 0.637

Question: For RRIRDRPPRLPRPRPRPGTLPRP, which “shrunken log2 fold change” value is on record?
Answer: -0.00146

Question: How did the “shrunken log2 fold change” value turn out when RRIRDRPPRLPRPRPRPGVFPRP was run?
Answer: -0.00239

Question: Which “shrunken log2 fold change” value does the source give for RRIRDRPPRLPRPRPRPGWDPRP here?
Answer: -0.182

Question: For RRIRDRPPRLPRPRPRPGWIPRP, which “shrunken log2 fold change” value is on record?
Answer: 0.19

Question: RRIRDRPPRLPRPRPRPGYAPRP was tested. Which “shrunken log2 fold change” value did it give?
Answer: 0.137

Question: Which “shrunken log2 fold change” value does the source give for RRIRDRPPRLPRPRPRPHCWPRP here?
Answer: 0.15

Question: Which “shrunken log2 fold change” value does the source give for RRIRDRPPRLPRPRPRPHDRPRP here?
Answer: -0.00543

Question: How did the “shrunken log2 fold change” value turn out when RRIRDRPPRLPRPRPRPHDSPRP was run?
Answer: -0.00201

Question: Which “shrunken log2 fold change” value does the source give for RRIRDRPPRLPRPRPRPHKWPRP here?
Answer: -0.202

Question: RRIRDRPPRLPRPRPRPHLSPRP was tested. Which “shrunken log2 fold change” value did it give?
Answer: 0.0479

Question: With RRIRDRPPRLPRPRPRPHMAPRP as the sequence, how does the “shrunken log2 fold change” value read?
Answer: -0.232

Question: With RRIRDRPPRLPRPRPRPHMIPRP as the sequence, how does the “shrunken log2 fold change” value read?
Answer: -0.125

Question: With RRIRDRPPRLPRPRPRPHMLPRP as the sequence, how does the “shrunken log2 fold change” value read?
Answer: -0.144

Question: With RRIRDRPPRLPRPRPRPHMSPRP as the sequence, how does the “shrunken log2 fold change” value read?
Answer: -0.00968

Question: How did the “shrunken log2 fold change” value turn out when RRIRDRPPRLPRPRPRPHNHPRP was run?
Answer: -0.612

Question: How did the “shrunken log2 fold change” value turn out when RRIRDRPPRLPRPRPRPHNRPRP was run?
Answer: -0.00159

Question: With RRIRDRPPRLPRPRPRPHPAPRP as the sequence, how does the “shrunken log2 fold change” value read?
Answer: 0.145

Question: For RRIRDRPPRLPRPRPRPHQHPRP, which “shrunken log2 fold change” value is on record?
Answer: -0.308

Question: RRIRDRPPRLPRPRPRPHQKPRP was tested. Which “shrunken log2 fold change” value did it give?
Answer: 0.365

Question: RRIRDRPPRLPRPRPRPHQSPRP was tested. Which “shrunken log2 fold change” value did it give?
Answer: 0.0679

Question: Which “shrunken log2 fold change” value does the source give for RRIRDRPPRLPRPRPRPHRPPRP here?
Answer: 0.0369

Question: Which “shrunken log2 fold change” value does the source give for RRIRDRPPRLPRPRPRPHRQPRP here?
Answer: -0.0279

Question: For RRIRDRPPRLPRPRPRPHRWPRP, which “shrunken log2 fold change” value is on record?
Answer: 0.00819

Question: With RRIRDRPPRLPRPRPRPHVFPRP as the sequence, how does the “shrunken log2 fold change” value read?
Answer: -0.0358

Question: For RRIRDRPPRLPRPRPRPHVSPRP, which “shrunken log2 fold change” value is on record?
Answer: 0.27

Question: For RRIRDRPPRLPRPRPRPHWDPRP, which “shrunken log2 fold change” value is on record?
Answer: -0.0788

Question: RRIRDRPPRLPRPRPRPHYHPRP was tested. Which “shrunken log2 fold change” value did it give?
Answer: -0.806

Question: Which “shrunken log2 fold change” value does the source give for RRIRDRPPRLPRPRPRPHYIPRP here?
Answer: -1.02

Question: Which “shrunken log2 fold change” value does the source give for RRIRDRPPRLPRPRPRPHYTPRP here?
Answer: -0.73

Question: RRIRDRPPRLPRPRPRPIAMPRP was tested. Which “shrunken log2 fold change” value did it give?
Answer: 0.384

Question: With RRIRDRPPRLPRPRPRPIAQPRP as the sequence, how does the “shrunken log2 fold change” value read?
Answer: -0.0679

Question: With RRIRDRPPRLPRPRPRPIAVPRP as the sequence, how does the “shrunken log2 fold change” value read?
Answer: -0.00168

Question: How did the “shrunken log2 fold change” value turn out when RRIRDRPPRLPRPRPRPICAPRP was run?
Answer: 0.172

Question: For RRIRDRPPRLPRPRPRPIEPPRP, which “shrunken log2 fold change” value is on record?
Answer: -0.0685

Question: For RRIRDRPPRLPRPRPRPIFFPRP, which “shrunken log2 fold change” value is on record?
Answer: 0.0831

Question: With RRIRDRPPRLPRPRPRPIGFPRP as the sequence, how does the “shrunken log2 fold change” value read?
Answer: 0.0229

Question: RRIRDRPPRLPRPRPRPIIKPRP was tested. Which “shrunken log2 fold change” value did it give?
Answer: -0.0129

Question: With RRIRDRPPRLPRPRPRPIINPRP as the sequence, how does the “shrunken log2 fold change” value read?
Answer: 0.423

Question: For RRIRDRPPRLPRPRPRPILHPRP, which “shrunken log2 fold change” value is on record?
Answer: -0.0215

Question: Which “shrunken log2 fold change” value does the source give for RRIRDRPPRLPRPRPRPILSPRP here?
Answer: -0.216

Question: For RRIRDRPPRLPRPRPRPILYPRP, which “shrunken log2 fold change” value is on record?
Answer: -0.131

Question: For RRIRDRPPRLPRPRPRPIMSPRP, which “shrunken log2 fold change” value is on record?
Answer: -0.0134

Question: For RRIRDRPPRLPRPRPRPINVPRP, which “shrunken log2 fold change” value is on record?
Answer: 0.0039

Question: For RRIRDRPPRLPRPRPRPIPDPRP, which “shrunken log2 fold change” value is on record?
Answer: -0.0185

Question: Which “shrunken log2 fold change” value does the source give for RRIRDRPPRLPRPRPRPIPEPRP here?
Answer: -0.138

Question: How did the “shrunken log2 fold change” value turn out when RRIRDRPPRLPRPRPRPIQWPRP was run?
Answer: -0.153

Question: With RRIRDRPPRLPRPRPRPIRHPRP as the sequence, how does the “shrunken log2 fold change” value read?
Answer: -0.0425

Question: RRIRDRPPRLPRPRPRPIRQPRP was tested. Which “shrunken log2 fold change” value did it give?
Answer: 0.193

Question: How did the “shrunken log2 fold change” value turn out when RRIRDRPPRLPRPRPRPISMPRP was run?
Answer: 0.0543

Question: Which “shrunken log2 fold change” value does the source give for RRIRDRPPRLPRPRPRPITWPRP here?
Answer: 0.098

Question: With RRIRDRPPRLPRPRPRPIVAPRP as the sequence, how does the “shrunken log2 fold change” value read?
Answer: -0.0201

Question: With RRIRDRPPRLPRPRPRPIVHPRP as the sequence, how does the “shrunken log2 fold change” value read?
Answer: -0.25

Question: RRIRDRPPRLPRPRPRPIVIPRP was tested. Which “shrunken log2 fold change” value did it give?
Answer: -0.259

Question: How did the “shrunken log2 fold change” value turn out when RRIRDRPPRLPRPRPRPIVQPRP was run?
Answer: -0.267

Question: With RRIRDRPPRLPRPRPRPIVTPRP as the sequence, how does the “shrunken log2 fold change” value read?
Answer: 0.171

Question: With RRIRDRPPRLPRPRPRPIYIPRP as the sequence, how does the “shrunken log2 fold change” value read?
Answer: -0.288

Question: Which “shrunken log2 fold change” value does the source give for RRIRDRPPRLPRPRPRPIYRPRP here?
Answer: -0.175

Question: With RRIRDRPPRLPRPRPRPKCAPRP as the sequence, how does the “shrunken log2 fold change” value read?
Answer: 0.169

Question: RRIRDRPPRLPRPRPRPKCGPRP was tested. Which “shrunken log2 fold change” value did it give?
Answer: 0.00846

Question: RRIRDRPPRLPRPRPRPKDHPRP was tested. Which “shrunken log2 fold change” value did it give?
Answer: 0.0158

Question: How did the “shrunken log2 fold change” value turn out when RRIRDRPPRLPRPRPRPKETPRP was run?
Answer: -0.0231

Question: How did the “shrunken log2 fold change” value turn out when RRIRDRPPRLPRPRPRPKFWPRP was run?
Answer: 0.442

Question: For RRIRDRPPRLPRPRPRPKGAPRP, which “shrunken log2 fold change” value is on record?
Answer: 0.368

Question: Which “shrunken log2 fold change” value does the source give for RRIRDRPPRLPRPRPRPKGEPRP here?
Answer: 0.0647
